One test concerns the target T1, Kv1.3 (Homo sapiens, UniProt P22001).
T1 construct: endogenous in cells; host or cells: T cells in 50% human whole blood from multiple donors
The test is described as follows: Human whole blood assay: thapsigargin-induced IL-2 and IFN-γ secretion. It is filed as cell-based. The following applies: for IC50: human whole blood; for Potency Relative to ShK (WB, IL2): ratio of WB IL-2 IC50 to that of ShK(1-35). As to the method: An ex vivo assay was employed to examine impact of toxin peptide analog Kv1.3 inhibitors on secretion of IL-2 and IFN-γ. […] In brief, 50% human whole blood was stimulated with thapsigargin to induce store depletion, calcium mobilization and cytokine secretion. […] After 48 hours at 37° C. and 5% CO2, conditioned medium was collected and the level of cytokine secretion was determined using a 4-spot electrochemiluminescent immunoassay from MesoScale Discovery. […] Kv1.3 is the major voltage-gated potassium channel present on T cells. Allowing for K^+ efflux, Kv1.3 provides the driving force for continued Ca^2+ influx which is necessary for the sustained elevation in intracellular calcium needed for efficient T cell activation and cytokine secretion. […] Therefore, we employed a bioassay whereby the bioactivity of Kv1.3 inhibitors is assessed by examining their ability to block thapsigargin-induced cytokine secretion from T cells in human whole blood.

A further test addresses T2, huIL-17R (Homo sapiens, UniProt Q96F46).
T2 construct: FLAG (the F of FpH); polyHis (the pH of FpH)
T2 sequence (Q96F46 with tags, fused parts or gaps): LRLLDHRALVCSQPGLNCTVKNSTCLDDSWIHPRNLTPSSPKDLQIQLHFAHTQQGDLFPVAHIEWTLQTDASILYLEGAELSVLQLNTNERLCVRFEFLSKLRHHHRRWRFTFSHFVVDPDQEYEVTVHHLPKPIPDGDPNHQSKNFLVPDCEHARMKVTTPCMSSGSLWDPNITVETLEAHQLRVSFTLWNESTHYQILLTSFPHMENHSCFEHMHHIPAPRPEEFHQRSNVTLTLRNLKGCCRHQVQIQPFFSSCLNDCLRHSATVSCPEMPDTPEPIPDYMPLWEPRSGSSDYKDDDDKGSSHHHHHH
The test is described as follows: BIAcore solution equilibrium binding assay to huIL-17R (16429 immobilized). The following applies: for IL-17R binding capability: 10 nM, 100 nM and 1000 nM antibody incubated with 10 nM IL-17R (FIG. 2A); for IL-17R binding activity: 30 μM antibody with 30 nM IL-17R (FIG. 2B). As to the method:
Antibody 16429 was immobilized to a CM5 sensor chip, and 10 nM of IL-17R in the absence of antibody was used to establish the 100% binding signal of […] that is free of antibody binding in solution. In FIG. 2A, 10 nM, 100 nM and 1000 nM of indicated antibody samples were incubated with the 10 nM IL-17R to determine antibody binding in solution. In FIG. 2B, 30,000 nM of the antibody samples were incubated with 30 nM IL-17R to determine antibody binding in solution. In FIGS. 2A-B, The decreased binding signal of IL-17R after the antibody incubation indicates the binding of the antibody to IL-17R in solution.
A reference antigen binding protein (e.g., Antibody 16429 for human IL-17R or Antibody 16449 for human TR2) is immobilized to a BIACore® 2000, research grade sensor chip CM5 surface according to manufacturer's instructions (BIACore, Inc., Piscataway, N.J.). Carboxyl groups on the sensor chip surfaces are activated by injecting 60 μL of a mixture containing 0.2 M N-ethyl-N′-(dimethylaminopropyl) carbodiimide (EDC) and 0.05 M N-hydroxysuccinimide (NHS). The reference antigen binding protein is diluted in 10 mM sodium acetate, pH 4.0 and injected over the activated chip surface at 30 μL/min for 6 minutes. Excess reactive groups on the surfaces are deactivated by injecting 60 μL of 1 M ethanolamine. The final immobilized level is typically approximately 6600 resonance units (RU). Soluble target antigen (e.g., 10 nM of soluble human IL-17R or 30 nM of soluble human TR2) in the absence of soluble antigen binding protein (e.g., antibody) is used to establish the 100% binding signal to the fixed reference antigen binding protein (e.g., the positive control antibody). The decreased binding signal of the target antigen after incubation of the test immunoglobulin indicates its level of binding to the target antigen in solution.
The lead candidates were then selected based on lack of binding to the IL-17R extracellular domain as determined by BIAcore analysis. Antibody 16429 is a human antibody that specifically binds to huIL-17R. A solution equilibrium binding assay was developed to assess the binding activity of a set of antibodies to huIL-17R. Antibody 16429 was immobilized to a BIACore® 2000, research grade sensor chip CM5 surface according to manufacturer's instructions (BIACore, Inc., Piscataway, N.J.). Briefly, carboxyl groups on the sensor chip surfaces were activated by injecting 60 μL of a mixture containing 0.2 M N-ethyl-N′-(dimethylaminopropyl) carbodiimide (EDC) and 0.05 M N-hydroxysuccinimide (NHS). Antibody 16429 was diluted in 10 mM sodium acetate, pH 4.0 and injected over the activated chip surface at 30 μL/min for 6 minutes. Excess reactive groups on the surfaces were deactivated by injecting 60 μL of 1 M ethanolamine. The final immobilized level was approximately 6600 resonance units (RU). As represented in FIG. 2A, 10 nM of IL-17R in the absence of soluble antibody was used to establish the 100% binding signal of IL-17R to the fixed 16429 antibody. To determine antibody binding in solution, 10 nM, 100 nM and 1000 nM of the antibody samples were incubated with the 10 nM IL-17R. The decreased binding signal of IL-17R after the antibody incubation indicates the binding of the antibody to IL-17R in solution.
(SPR reads the build-up and loss of mass on a sensor chip optically.)

The next test addresses T3, IL-17R (Homo sapiens, UniProt Q96F46).
T3 construct: endogenous in cells; host or cells: human foreskin fibroblasts (HFF)
T3 sequence (Q96F46 33-866): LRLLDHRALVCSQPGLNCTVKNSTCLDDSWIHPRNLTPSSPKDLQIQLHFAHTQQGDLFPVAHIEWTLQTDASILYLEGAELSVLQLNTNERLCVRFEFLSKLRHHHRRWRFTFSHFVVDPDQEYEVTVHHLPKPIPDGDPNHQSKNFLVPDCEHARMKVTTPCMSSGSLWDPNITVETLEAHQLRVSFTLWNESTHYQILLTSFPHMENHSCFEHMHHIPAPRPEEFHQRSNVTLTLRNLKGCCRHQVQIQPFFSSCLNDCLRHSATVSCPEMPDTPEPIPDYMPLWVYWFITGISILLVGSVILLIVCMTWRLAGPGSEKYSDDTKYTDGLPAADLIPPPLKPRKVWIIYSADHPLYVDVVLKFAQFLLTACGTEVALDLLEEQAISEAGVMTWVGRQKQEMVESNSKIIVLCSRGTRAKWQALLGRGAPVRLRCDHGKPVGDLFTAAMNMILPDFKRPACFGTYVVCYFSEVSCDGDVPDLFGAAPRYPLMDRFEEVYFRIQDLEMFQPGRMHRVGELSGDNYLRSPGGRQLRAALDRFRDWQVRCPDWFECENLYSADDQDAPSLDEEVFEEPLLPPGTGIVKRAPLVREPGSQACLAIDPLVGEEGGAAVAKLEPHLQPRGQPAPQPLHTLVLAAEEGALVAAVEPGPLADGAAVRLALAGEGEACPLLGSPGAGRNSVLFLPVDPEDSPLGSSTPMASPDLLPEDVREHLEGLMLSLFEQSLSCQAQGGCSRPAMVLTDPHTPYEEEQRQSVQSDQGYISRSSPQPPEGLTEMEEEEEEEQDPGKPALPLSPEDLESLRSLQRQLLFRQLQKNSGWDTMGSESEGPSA
Kind of test: Cell based activity assay: IL-17-induced GRO-α release from human foreskin fibroblasts (sandwich ELISA). The following applies: HFF, 5 ng/ml IL-17; 0.1, 1 and 10 μM antibody (FIG. 3). On the procedure:
The conditioned cell medium was then assessed for GRO-α levels using a GRO-α sandwich ELISA.
Interaction of IL-17 with the IL-17R on cells induces the production of various factors, including growth-related oncogene alpha (GRO-α), from these cells. A cell-based characterization assay was developed to measure GRO-α released using sandwich ELISA. In this ELISA, a GRO-α capture antibody is utilized to bind GRO-α, and then a biotinylated GRO-α detection antibody is used to detect the captured protein. Streptavidin conjugated to horseradish peroxidise (HRP) is then added to detect the amount of biotinylated GRO-α detection antibody bound. The amount of HRP bound is measured by evaluation of absorbance at 450 nm. An increase in absorbance at 450 nm is indicative of an increase in the amount of GRO-α produced. In this assay, human foreskin fibroblasts (HFF) are incubated with 5 ng/ml IL-17 and 0.1 μM, 1 μM and 10 μM of antibody samples. The conditioned cell medium is then harvested and processed for assessment of GRO-α levels using a GRO-α sandwich ELISA.
For orientation: In an ELISA, binding on a coated surface is turned into a signal by an enzyme label.

What is called IC50 is the point on the concentration scale where inhibition reaches its midpoint.

Like-named read-outs stand apart in the source and are kept apart here. Where no end group is shown, it is not given here.

T1 sequence (P22001 whole entry): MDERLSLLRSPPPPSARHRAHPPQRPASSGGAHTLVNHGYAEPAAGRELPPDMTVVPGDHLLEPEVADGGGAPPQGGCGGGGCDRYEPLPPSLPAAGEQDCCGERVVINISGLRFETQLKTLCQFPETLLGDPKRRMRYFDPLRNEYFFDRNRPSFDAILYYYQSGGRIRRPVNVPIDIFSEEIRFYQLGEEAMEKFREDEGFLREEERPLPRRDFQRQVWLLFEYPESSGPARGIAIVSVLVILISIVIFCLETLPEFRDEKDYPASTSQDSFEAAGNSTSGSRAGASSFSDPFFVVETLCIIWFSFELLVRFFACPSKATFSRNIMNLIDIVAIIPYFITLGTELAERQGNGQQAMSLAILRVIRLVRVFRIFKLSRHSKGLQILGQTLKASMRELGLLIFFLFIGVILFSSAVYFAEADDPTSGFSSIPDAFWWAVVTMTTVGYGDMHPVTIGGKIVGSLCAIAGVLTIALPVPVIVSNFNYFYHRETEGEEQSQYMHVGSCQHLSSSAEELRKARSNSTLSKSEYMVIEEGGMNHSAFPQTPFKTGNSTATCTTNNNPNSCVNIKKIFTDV

As to “Bivalent Fc-L10-ShK[2-35] homodimer: IgG1 Fc peptibody, Example 2 of WO2008/088422 A2 (GGGGSGGGGSSCIDTIPKSRCTAFQCKHSMKYRLSFCRKTCGTC; ends and bridges not checked; also: Fc fusion homodimer, Fc domain not in chain)”, the IC50 is 2.29 nM in the test with Kv1.3 (IFNg, read-out: WB (IFNg) IC50) and 0.585 nM in the test with Kv1.3 (IL-2, read-out: WB (IL-2) IC50). The “Potency Relative to ShK (WB, IL2)” value with Kv1.3 amounted to 8.73.

With “20 kDa-PEG-ShK: N-terminally 20 kDa PEGylated ShK, SEQ ID NO:380”, the IC50 was determined as 0.84 nM with Kv1.3 (IFNg, read-out: WB (IFNg) IC50) and 0.38 nM with Kv1.3 (IL-2, read-out: WB (IL-2) IC50).

As for “Bivalent Fc-L10-ShK[1-35] homodimer: IgG1 Fc peptibody, Example 1 of WO2008/088422 A2 (GGGGSGGGGSRSCIDTIPKSRCTAFQCKHSMKYRLSFCRKTCGTC; ends and bridges not checked; also: Fc fusion homodimer, Fc domain not in chain)”, the concentration for half-maximal inhibition (IC50) in the test with Kv1.3 (IFNg, read-out: WB (IFNg) IC50) is 0.32 nM; in the test with Kv1.3 (IL-2, read-out: WB (IL-2) IC50), 0.386 nM. The “Potency Relative to ShK (WB, IL2)” value with Kv1.3 came to 5.76.

B1: 16438 (antibody, V domains shown)
VH: QVQLVQSGAEVKKPGASVKVSCKASGYTFTRYGISWVRQAPGQGLEWMGWISTYSGNTNYAQKLQGRVTMTTDTSTSTAYMELRSLRSDDTAVYYCARRQQYFDYWGQGTLVTVSS
VL: EIVMTQSPATLSVSPGERATLSCRASQSVSSNLAWFQQKPGQAPRLLIYDASTRATGVPARFSGSGSGTEFTLTISSLQSEDFAVYYCQQYDNWPLTFGGGTKVEIK
In the case of B1, in the test with huIL-17R, the IL-17R binding capability entry was “substantial reduction in IL-17R binding capability” and the IL-17R binding activity result was “no significant IL-17R binding activity”. Also, the “blocking activity on IL-17-induced GRO-α production” value (shortened to “blocking activity”) with IL-17R was “no significant blocking activity”.

B2: 16441 (antibody, V domains shown)
VH: QVQLVQSGAEVKKPGASVKVSCKASGYTFTRYGISWVRQAPGQGLEWMGWISTYSGNTNYAQKLQGRVTMTTDTSTSTAYMELRSLRSDDTAVYYCARAQQYFDYWGQGTLVTVSS
VL: EIVMTQSPATLSVSPGERATLSCRASQSVSSNLAWFQQKPGQAPRLLIYDASTRATGVPARFSGSGSGTEFTLTISSLQSEDFAVYYCQQYDNWPLTFGGGTKVEIK
Regarding B2, in the test with huIL-17R, the IL-17R binding capability result is given as “substantial reduction in IL-17R binding capability” and the IL-17R binding activity result is reported as “no significant IL-17R binding activity”. Besides, the “blocking activity” value with IL-17R is “no significant blocking activity”.

B3: 16440 (antibody, V domains shown)
VH: QVQLVQSGAEVKKPGASVKVSCKASGYTFTRYGISWVRQAPGQGLEWMGWISTYSGNTNYAQKLQGRVTMTTDTSTSTAYMELRSLRSDDTAVYYCARAQQYFDYWGQGTLVTVSS
VL: EIVMTQSPATLSVSPGERATLSCRASQSVSSNLAWFQQKPGQAPRPLIYDASTRATGVPARFSGSGSGTDFTLTISSLQSEDFAVYYCQQYDNWPLTFGGGTKVEIK
B3: in the test with huIL-17R, the IL-17R binding capability entry is recorded as “substantial reduction in IL-17R binding capability” and the IL-17R binding activity entry is reported as “no significant IL-17R binding activity”. Besides, the “blocking activity” value in the test with IL-17R is given as “no significant blocking activity”.

B4: 16439 (antibody, V domains shown)
VH: QVQLVQSGAEVKKPGASVKVSCKASGYTFTRYGISWVRQAPGQGLEWMGWISTYSGNTNYAQKLQGRVTMTTDTSTSTAYMELRSLRSDDTAVYYCARRQQYFDYWGQGTLVTVSS
VL: EIVMTQSPATLSVSPGERATLSCRASQSVSSNLAWFQQKPGQAPRLLIYDASTRATGVPARFSGSGSGTEFTLTISSLQSEDFAVYYCQQYDNAPLTFGGGTKVEIK
Consider B4, for which, in the test with huIL-17R, the IL-17R binding capability entry was “substantial reduction in IL-17R binding capability” and the IL-17R binding activity result is given as “no significant IL-17R binding activity”. The “blocking activity” value in the test with IL-17R was “no significant blocking activity”.

For the origin of these results see US9803019B2, “Carrier immunoglobulins and uses thereof” (Amgen Inc., priority 2010, dated 2017).
